Columns and labels:
[1] = target: the molecule itself; assay: crystal structure; MtrR dimer bound to a 21-mer operator oligoduplex (Semet-MtrR with rpoH, native MtrR with mtrCDE); hanging drop, 200 mM calcium acetate, 27% PEG 8000, 100 mM Tris pH 7.5
[2] = target: the molecule itself; assay: SEC; elution of purified point mutants compared with WT MtrR (Supplementary Figure S4); S200 column named in the purification

B1: Selenomethionine-derivatized MtrR (natural protein)
chain: MRKTKTEALKTKEHLMLAALETFYRKGIARTSLNEIAQAAGVTRGALYWHFKNKEDLFDALFQRICDDIENCIAQDAADAEGGSWTVFRHTLLHFFERLQSNDIHYKFHNILFLKCEHTEQNAAVIAIARKHQAIWREKITAVLTEAVENQDLADDLDKETAVIFIKSTLDGLIWRWFSSGESFDLGKTAPRIIGIMMDNLENHPCLRRK
modifications: selenomethionine-derivatized
notes: MtrR, TetR-family transcriptional repressor of Neisseria gonorrhoeae, product of the mtrR gene; Same construct as m1 with methionines as selenomethionine; also called Semet-MtrR; not shown: His6, N-terminal, cleaved
Does B1 bind [1]?
Result: binds

B2: MtrR(W49F) (natural protein, Neisseria gonorrhoeae)
chain: MRKTKTEALKTKEHLMLAALETFYRKGIARTSLNEIAQAAGVTRGALYFHFKNKEDLFDALFQRICDDIENCIAQDAADAEGGSWTVFRHTLLHFFERLQSNDIHYKFHNILFLKCEHTEQNAAVIAIARKHQAIWREKITAVLTEAVENQDLADDLDKETAVIFIKSTLDGLIWRWFSSGESFDLGKTAPRIIGIMMDNLENHPCLRRK
notes: MtrR of Neisseria gonorrhoeae, point mutant; Made by site-directed mutagenesis of the mtrR-pMCSG7 construct; source: expressed from the pMCSG7 vector, purified (Ni-NTA, TEV cleavage, Ni-NTA, S200 size exclusion); not shown: His6, N-terminal, cleaved
For B2, which “stoichiometry N” value [2] is on record?
The value was 2.

B3: MtrR(W49A) (natural protein, Neisseria gonorrhoeae)
chain: MRKTKTEALKTKEHLMLAALETFYRKGIARTSLNEIAQAAGVTRGALYAHFKNKEDLFDALFQRICDDIENCIAQDAADAEGGSWTVFRHTLLHFFERLQSNDIHYKFHNILFLKCEHTEQNAAVIAIARKHQAIWREKITAVLTEAVENQDLADDLDKETAVIFIKSTLDGLIWRWFSSGESFDLGKTAPRIIGIMMDNLENHPCLRRK
notes: as for B2
For B3, which “stoichiometry N” value [2] is on record?
The value was 2.

B4: MtrR(H50A) (natural protein, Neisseria gonorrhoeae)
chain: MRKTKTEALKTKEHLMLAALETFYRKGIARTSLNEIAQAAGVTRGALYWAFKNKEDLFDALFQRICDDIENCIAQDAADAEGGSWTVFRHTLLHFFERLQSNDIHYKFHNILFLKCEHTEQNAAVIAIARKHQAIWREKITAVLTEAVENQDLADDLDKETAVIFIKSTLDGLIWRWFSSGESFDLGKTAPRIIGIMMDNLENHPCLRRK
notes: as for B2
Which “stoichiometry N” value [2] does the source give for B4 here?
Its value is 2.

B5: MtrR wild type (natural protein)
chain: MRKTKTEALKTKEHLMLAALETFYRKGIARTSLNEIAQAAGVTRGALYWHFKNKEDLFDALFQRICDDIENCIAQDAADAEGGSWTVFRHTLLHFFERLQSNDIHYKFHNILFLKCEHTEQNAAVIAIARKHQAIWREKITAVLTEAVENQDLADDLDKETAVIFIKSTLDGLIWRWFSSGESFDLGKTAPRIIGIMMDNLENHPCLRRK
notes: MtrR, TetR-family transcriptional repressor of Neisseria gonorrhoeae, product of the mtrR gene; also called WT MtrR; MtrR WT; source: expressed from the pMCSG7 vector, purified (Ni-NTA, TEV cleavage, Ni-NTA, S200 size exclusion); not shown: His6, N-terminal, cleaved
How did the “stoichiometry N” value [2] turn out when B5 was run?
Its value is 2.

B6: MtrR(T11A) (natural protein, Neisseria gonorrhoeae)
chain: MRKTKTEALKAKEHLMLAALETFYRKGIARTSLNEIAQAAGVTRGALYWHFKNKEDLFDALFQRICDDIENCIAQDAADAEGGSWTVFRHTLLHFFERLQSNDIHYKFHNILFLKCEHTEQNAAVIAIARKHQAIWREKITAVLTEAVENQDLADDLDKETAVIFIKSTLDGLIWRWFSSGESFDLGKTAPRIIGIMMDNLENHPCLRRK
notes: as for B2
For B6, which “stoichiometry N” value [2] is on record?
Its value is 2.

B7: MtrR(T43A) (natural protein, Neisseria gonorrhoeae)
chain: MRKTKTEALKTKEHLMLAALETFYRKGIARTSLNEIAQAAGVARGALYWHFKNKEDLFDALFQRICDDIENCIAQDAADAEGGSWTVFRHTLLHFFERLQSNDIHYKFHNILFLKCEHTEQNAAVIAIARKHQAIWREKITAVLTEAVENQDLADDLDKETAVIFIKSTLDGLIWRWFSSGESFDLGKTAPRIIGIMMDNLENHPCLRRK
notes: as for B2
How did the “stoichiometry N” value [2] turn out when B7 was run?
Its value is 2.

B8: MtrR(T43S) (natural protein, Neisseria gonorrhoeae)
chain: MRKTKTEALKTKEHLMLAALETFYRKGIARTSLNEIAQAAGVSRGALYWHFKNKEDLFDALFQRICDDIENCIAQDAADAEGGSWTVFRHTLLHFFERLQSNDIHYKFHNILFLKCEHTEQNAAVIAIARKHQAIWREKITAVLTEAVENQDLADDLDKETAVIFIKSTLDGLIWRWFSSGESFDLGKTAPRIIGIMMDNLENHPCLRRK
notes: as for B2
With B8 as the protein, how does the “stoichiometry N” value [2] read?
Its value is 2.

B9: MtrR(R44A) (natural protein, Neisseria gonorrhoeae)
chain: MRKTKTEALKTKEHLMLAALETFYRKGIARTSLNEIAQAAGVTAGALYWHFKNKEDLFDALFQRICDDIENCIAQDAADAEGGSWTVFRHTLLHFFERLQSNDIHYKFHNILFLKCEHTEQNAAVIAIARKHQAIWREKITAVLTEAVENQDLADDLDKETAVIFIKSTLDGLIWRWFSSGESFDLGKTAPRIIGIMMDNLENHPCLRRK
notes: as for B2
B9 was tested. Which “stoichiometry N” value [2] did it give?
Its value is 2.

B10: MtrR(G45A) (natural protein, Neisseria gonorrhoeae)
chain: MRKTKTEALKTKEHLMLAALETFYRKGIARTSLNEIAQAAGVTRAALYWHFKNKEDLFDALFQRICDDIENCIAQDAADAEGGSWTVFRHTLLHFFERLQSNDIHYKFHNILFLKCEHTEQNAAVIAIARKHQAIWREKITAVLTEAVENQDLADDLDKETAVIFIKSTLDGLIWRWFSSGESFDLGKTAPRIIGIMMDNLENHPCLRRK
notes: as for B2
Which “stoichiometry N” value [2] does the source give for B10 here?
The value was 2.

B11: MtrR(Y48F) (natural protein, Neisseria gonorrhoeae)
chain: MRKTKTEALKTKEHLMLAALETFYRKGIARTSLNEIAQAAGVTRGALFWHFKNKEDLFDALFQRICDDIENCIAQDAADAEGGSWTVFRHTLLHFFERLQSNDIHYKFHNILFLKCEHTEQNAAVIAIARKHQAIWREKITAVLTEAVENQDLADDLDKETAVIFIKSTLDGLIWRWFSSGESFDLGKTAPRIIGIMMDNLENHPCLRRK
notes: as for B2
For B11, which “stoichiometry N” value [2] is on record?
The value was 2.
